T1: human Leucine-rich alpha-2-glycoprotein 1 (Lrg1) (human, UniProt P02750 36-347, limits assumed)
T1 construct: In the western blots the native protein of conditioned medium, vitreous and serum was probed; also called human Lrg1; hLrg1
T1 sequence: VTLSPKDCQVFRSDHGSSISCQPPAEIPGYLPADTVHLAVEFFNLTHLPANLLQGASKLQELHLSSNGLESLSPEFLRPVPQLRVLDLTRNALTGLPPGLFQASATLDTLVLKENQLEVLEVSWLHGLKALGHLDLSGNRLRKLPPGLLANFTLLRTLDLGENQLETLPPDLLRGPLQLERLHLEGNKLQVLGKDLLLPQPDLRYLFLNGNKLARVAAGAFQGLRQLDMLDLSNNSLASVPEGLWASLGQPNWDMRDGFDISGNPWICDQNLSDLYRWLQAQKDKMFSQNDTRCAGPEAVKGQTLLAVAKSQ

T2: Lrg1 peptide GNKLQVLGKDLLLPQ (amino acids 221-235 of Lrg1) (human)
T2 construct: Synthetic 15-mer of the overlapping library
T2 peptide: GNKLQVLGKDLLLPQ


How the values were obtained:
[1] = molecular target: T1, human Leucine-rich alpha-2-glycoprotein …; assay: competition ELISA: dilution series of the purified antibody against a fixed concentration of biotinylated mouse 15C4 on recombinant hLRG1; bound biotinylated 15C4 detected with streptavidin-peroxidase and TMB [bottom panel]
Excerpt: Top panel-Analytical size exclusion chromatography showing single peak and no aggregates. SDS-PAGE showing reduced (lane 1) and non-reduced (lane 2) antibody. Bottom panel-Anti-hLRG1 competition ELISA. A dilution series of each purified antibody was competed against a fixed concentration of biotinylated mouse 15C4 for binding to recombinant hLRG1. Bound biotinylated mouse 15C4 was detected using streptavidin-peroxidase and TMB substrate.
The properties of Magacizumab were investigated. Analytical size exclusion chromatography was conducted showing a single peak and no aggregates (FIG. 20). An anti-hLrg1 competition ELISA was carried out. A dilution series of each purified antibody was competed against a fixed concentration of biotinylated mouse 15C4 for binding to recombinant hLrg1. Bound biotinylated mouse 15C4 was detected using streptavidin-peroxidase and TMB substrate. This was an analytical step in which several humanised variants were tested against the chimeric 15C4, in order to identify those that retained the best binding characteristics.

[2] = molecular target: T1, human Leucine-rich alpha-2-glycoprotein …; assay: competition ELISA on coated hLrg1; competitor biotinylated mouse 15C4 at 0.4 µg/ml
[3] = molecular target: T1, human Leucine-rich alpha-2-glycoprotein …; assay: competition ELISA: plate coated with hLrg1, dilution series of the test antibody premixed with biotinylated mouse 15C4 (0.4 µg/ml); bound biotinylated 15C4 detected with streptavidin-HRP and TMB [top graph]
Procedure: (§1) The chimeric antibody was expressed transiently in HEK EBNA cells and stably in NS0 mouse myeloma cells, purified and tested for binding to human Lrg1 in a competition ELISA assay. A Nunc Immuno MaxiSorp 96 well flat bottom microtitre plate (Fisher, cat. no. DIS-971-030J) was pre-coated with 0.2 μg/ml hLrg1 (supplied by UCL) overnight in 0.1 N Sodium Carbonate buffer (NaHCO₃) at +4° C. The following day the plate was washed 1× with PBST and blocked with 3% BSA/PBS for 1 hour at room temperature. After washing 3× with PB ST, a three-fold dilution series of chimeric, mouse or control antibodies from 100 μg/ml to 0.13 μg/ml was premixed with a constant concentration of biotinylated mouse 15C4 (0.4 μg/ml, final concentration), added to the plates and incubated for 1.5 hours at room temperature. Following 3×PBST washes, the binding of the biotinylated mAb was detected with streptavidin-HRP (Sigma, cat. no. 55512) and TMB substrate (Invitrogen, cat. no. 00-2023). The reaction was stopped with 3 M HCl, absorbance read at 450 nm on a Dynex Technologies MRX TC II plate reader and the binding curves plotted.

[4] = molecular target: T1, human Leucine-rich alpha-2-glycoprotein …; assay: competition ELISA: plate coated with hLrg1, dilution series of the test antibody premixed with biotinylated mouse 15C4 (0.4 µg/ml); bound biotinylated 15C4 detected with streptavidin-HRP and TMB [bottom graph]
Procedure: as §1

[5] = molecular target: T1, human Leucine-rich alpha-2-glycoprotein …; assay: Biacore SPR; human Lrg1 immobilised, mAb at 20-100 nM
Procedure: The four lead mAbs were examined using Biacore, in experiments in which human Lrg1 was immobilized on the chip, and mAbs passed across at concentrations ranging from 20-100 nM. The Table below summarises the kinetic data.

[6] = molecular target: T2, Lrg1 peptide GNKLQVLGKDLLLPQ (amino …); assay: ProArray Ultra peptide microarray, fluorescent secondary antibody
Procedure: The determination of peptide-antibody binding was performed by incubation of serum or antibody samples with a ProArray Ultra® peptide microarray, followed by incubation with a fluorescent-labelled secondary antibody.
ProArray Ultra® slides were blocked using a validated blocking buffer to reduce non-specific binding of the sera. They were then incubated with test samples, followed by incubation with a specific fluorescent-labelled secondary antibody. After several washing steps, the ProArray Ultra® arrays were dried and scanned using a high-resolution fluorescence microarray scanning system.
Overlapping peptides representing LRG1 were synthesized and printed onto ProArray Ultra® microarray slides, alongside selected murine IgG controls. Slides were incubated with murine monoclonal antibody samples 4H2, 15C4 and 3A11 to identify putative epitopes. An overlapping peptide library representing Lrg1 was synthesized from the sequence provided by the sponsor. 15-mer synthetic peptides, overlapping by 10 amino acids, were generated.

Row | Binder | IC50 fold difference against mouse 15C4 [2] [fold] | IC50 (read off the curve) [3] [µg/mL] | IC50 (read off the curve) [4] [µg/mL] | further results
1 | Magacizumab (humanised 15C4 antibody comprising heavy chain variable region VH5 and kappa light chain variable region VK3) (antibody, V domains shown, also called VH5/Vk3_3B6 clone; humanised antibody) VH: QVQLVQSGAEVKKPGSSVKVSCKASGYTFSGYWMNWVRQAPGQGLEWIGQIYPGDGDTNYNGKFKGRVTITADKSTSTAYMELSSLRSEDTAVYYCARSITTVVLDYWGQGTTVTVSS VL: DIVLTQSPDSLAVSLGERATISCRASQSVSTSGYSFMHWYQQKPGQPPKLLIKYASNLESGVPARFSGSGSGTDFTLTISSLQPEDFATYYCQHSWEMPLTFGQGTKLEIK |  |  |  | binding result [1]: binds
2 | chimeric 15C4 antibody (murine 15C4 variable regions with human IgG4 (S241P) heavy chain constant region and Kappa light chain constant region) (antibody, V domains shown, Human IgG4 (S241P) heavy chain constant region and human Kappa light chain constant region; Expressed transiently in HEK EBNA cells and stably in NS0 cells; also called chimeric antibody; VH0/Vk0) VH: QVQLQQSGDEVVRPGSSVKISCKASGYTFSGYWMNWVKQRPGQGLQWIGQIYPGDGDTNYNGKFKGKATLTADKSSSTAYMQLSTLTSEDSAIYFCARSITTVVLDYWGQGTTLTVSS VL: DIVLTQSPVSLAVSLGQRATISCRASQSVSTSGYSFMHWYQQKPGQPPKFLIKYASNLESGVPARFSGSGSGTDFTLNIHPVEEEDTATYYCQHSWEMPLTFGAGTKLELK | ≤ 2 | ~6 | ~3 | 
3 | Antibody 15C4 (mouse monoclonal antibody against human Lrg1) (antibody, V domains shown, Murine hybridoma antibody; also called mouse 15C4; mAb 15C4) VH: QVQLQQSGDEVVRPGSSVKISCKASGYTFSGYWMNWVKQRPGQGLQWIGQIYPGDGDTNYNGKFKGKATLTADKSSSTAYMQLSTLTSEDSAIYFCARSITTVVLDYWGQGTTLTVSS VL: DIVLTQSPVSLAVSLGQRATISCRASQSVSTSGYSFMHWYQQKPGQPPKFLIKYASNLESGVPARFSGSGSGTDFTLNIHPVEEEDTATYYCQHSWEMPLTFGAGTKLELK |  | ~5 | ~3 | Kd [5]: 1.27 pM; binding result [6]: binds

Now from value to binder, other results behind:

Row | IC50 fold difference against mouse 15C4 [2] [fold] | IC50 (read off the curve) [3] [µg/mL] | IC50 (read off the curve) [4] [µg/mL] | Binder | further results
4 | ≤ 2 |  |  | control antibody VH1/Vk0 (antibody, V domains shown) VH: QVQLVQSGDEVKKPGSSVKVSCKASGYTFSGYWMNWVKQAPGQGLQWIGQIYPGDGDTNYNGKFKGRATITADKSTSTAYMQLSTLTSEDSAIYFCARSITTVVLDYWGQGTTVTVSS VL: DIVLTQSPVSLAVSLGQRATISCRASQSVSTSGYSFMHWYQQKPGQPPKFLIKYASNLESGVPARFSGSGSGTDFTLNIHPVEEEDTATYYCQHSWEMPLTFGAGTKLELK | 
5 | ≤ 2 |  |  | control antibody VH0/Vk1 (antibody, V domains shown) VH: QVQLQQSGDEVVRPGSSVKISCKASGYTFSGYWMNWVKQRPGQGLQWIGQIYPGDGDTNYNGKFKGKATLTADKSSSTAYMQLSTLTSEDSAIYFCARSITTVVLDYWGQGTTLTVSS VL: DIVLTQSPDSLAVSLGERATISCRASQSVSTSGYSFMHWYQQKPGQPPKFLIKYASNLESGVPARFSGSGSGTDFTLTISSLQEEDFATYYCQHSWEMPLTFGQGTKLEIK | 

Source: US20180028609A1 (UCL BUSINESS, published 2018)
